Paper PMC7515738, “Identification and characterization of hippuristanol-resistant mutants reveals eIF4A1 dependencies within mRNA 5′ leader regions”

Assays:
Settings in all cases: tags: His6, single strand
eIF4A1 wt = eIF4A1 wt (UniProt P60842 1-406); test: fluorescence polarization; no Hipp; FP: 1 uM recombinant protein, FAM-poly r(AG)8, vehicle (0.1% DMSO) or Hipp, 30 min; buffer, salt, pH and temperature not given in the material
eIF4A1 G361C = eIF4A1 G361C (UniProt P60842 1-406, G361C); test: fluorescence polarization; no Hipp; similar to wt; FP: 1 uM recombinant protein, FAM-poly r(AG)8, vehicle (0.1% DMSO) or Hipp, 30 min; buffer, salt, pH and temperature not given in the material
eIF4A1 G361C, sequence (P60842 whole entry G361C): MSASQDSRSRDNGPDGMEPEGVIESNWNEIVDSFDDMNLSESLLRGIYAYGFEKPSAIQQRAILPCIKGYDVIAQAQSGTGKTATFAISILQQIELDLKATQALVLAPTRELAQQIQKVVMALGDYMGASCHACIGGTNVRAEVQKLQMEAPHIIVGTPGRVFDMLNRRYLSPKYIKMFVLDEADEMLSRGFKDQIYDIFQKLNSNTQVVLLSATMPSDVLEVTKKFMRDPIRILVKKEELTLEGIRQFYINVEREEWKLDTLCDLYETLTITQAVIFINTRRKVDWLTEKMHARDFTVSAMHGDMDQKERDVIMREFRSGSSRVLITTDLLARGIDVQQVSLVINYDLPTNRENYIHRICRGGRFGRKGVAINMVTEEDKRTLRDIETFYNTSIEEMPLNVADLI

eIF4A1 G370S = eIF4A1 G370S (UniProt P60842 1-406, G370S); test: as above
eIF4A1 G370S, sequence (P60842 whole entry G370S): as the sequence (P60842 whole entry G361C) above, with C361G, G370S counted along it

Measured: binding result

eIF4A1 wt, sequence (P60842 whole entry): as the sequence (P60842 whole entry G361C) above, with C361G counted along it

AGAGAGAGAGAGAGAG (ssRNA) [poly r(AG)8]
binds: eIF4A1 wt | eIF4A1 G361C | eIF4A1 G370S
